# In the supplement of paper PMC10065799, “High-throughput profiling of sequence recognition by tyrosine kinases and SH2 domains using bacterial peptide display” (eLife, 2023):
# Target: FGFR1 (UniProt P11362)
# Test: phosphorylation enrichment, bacterial display (enrichment ratio); higher = better substrate or ligand; peptides without Tyr show the background
# 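Note: 11-residue human phosphosite peptides and single-mutation variants displayed on the E. coli surface, counted by deep sequencing, each peptide's frequency after selection divided by its frequency in the unselected input library; frequency after pTyr selection over input frequency; kinase dosed for 20-30% of maximal phosphorylation in three min.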
# Chain of FGFR1 (P11362 whole entry, looked up): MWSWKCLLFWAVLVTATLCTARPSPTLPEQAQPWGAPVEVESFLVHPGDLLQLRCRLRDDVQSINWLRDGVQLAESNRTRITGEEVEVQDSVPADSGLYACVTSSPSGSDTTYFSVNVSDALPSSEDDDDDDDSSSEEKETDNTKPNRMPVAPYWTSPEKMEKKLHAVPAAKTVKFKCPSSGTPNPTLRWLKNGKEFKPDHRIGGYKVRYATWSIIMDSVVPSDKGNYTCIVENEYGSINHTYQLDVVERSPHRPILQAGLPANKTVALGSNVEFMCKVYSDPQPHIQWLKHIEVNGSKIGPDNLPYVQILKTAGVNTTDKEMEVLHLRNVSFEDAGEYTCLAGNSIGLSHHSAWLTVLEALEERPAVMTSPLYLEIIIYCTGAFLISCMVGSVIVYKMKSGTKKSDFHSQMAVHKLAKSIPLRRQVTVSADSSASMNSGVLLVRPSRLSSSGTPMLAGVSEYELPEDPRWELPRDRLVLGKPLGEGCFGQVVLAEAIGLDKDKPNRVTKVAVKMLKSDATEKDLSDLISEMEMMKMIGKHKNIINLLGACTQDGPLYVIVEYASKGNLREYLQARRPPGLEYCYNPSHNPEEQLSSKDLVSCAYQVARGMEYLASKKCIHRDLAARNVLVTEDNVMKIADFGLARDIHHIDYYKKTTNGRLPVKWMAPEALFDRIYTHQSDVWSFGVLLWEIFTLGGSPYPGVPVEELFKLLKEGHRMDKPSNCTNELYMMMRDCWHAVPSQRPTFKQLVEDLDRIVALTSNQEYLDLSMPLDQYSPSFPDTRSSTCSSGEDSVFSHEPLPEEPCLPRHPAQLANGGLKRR
row,Sequence,phosphorylation enrichment
1,LVGTPYWMAPE [PAK5_Y608],2.09
2,EEGNPSFSSAR [MCCC2_Y520_Y520S_YF],0.388
3,FPRAWYRRSIA [KIAA1109_Y4272],0.394
4,NSNSDYVDILP [SH2D1B_Y127_V130I],3.99
5,PNKAVYTKMMT [G6PD_Y401_E398K],0.661
6,CTNIHYNFMCN [TP53_Y234_T231N_YF],0.554
7,QKINNYLTVPA [SLC9A1_Y683],0.758
8,FGYPGYQSKHY [TIMP3_Y177],0.349
9,AKIDGYITSYR,0.469
10,YRTGHYLCNAC [GATA1_Y223_D218Y],0.412
11,FHRQLYHKCTH [F12_Y58_YF],0.387
12,EQFELYCEMGS [CBL_Y371_YF],1.26
13,RMETAYGPSVT [MXRA5_Y2717_E2716A],0.448
14,AADGRYEVLFL [SEMA3F_Y478],0.62
15,RRFLFYFSFLL [PTEN_Y177_V175L_YF],0.472
16,CNNFICGGCRG [SPINT2_Y163_Y163C],0.5
17,LATINYPFEKG [NDUFS8_Y84_P79L],0.503

row,Sequence,phosphorylation enrichment
1,SHSMRYFDTSV [HLA-C_Y31_A35S],0.47
2,ADKSAYLMGVN [MYH7_Y386_L390V],0.399
3,RTESQYQENRG [LRCH3_Y354_R350T],0.499
4,SRASFYRKGGC [ALK_Y1283_Y1278S_YF],0.381
5,TMEDSYRKQVV [KRAS_Y40_I36M],0.366
6,DAGTDYVGISC [FREM2_Y2061_R2066C],1.05
7,SVVVPYETPEV [TP53_Y220_P222T],0.569
8,QSKGIYYVQLE [MGAT4B_Y262],3.51
9,DYYDLYGGEKL [PTPN11_Y66_F71L],16.6
10,GLIPAYHWVIM [NMNAT1_Y64_R66W],8.56
11,VTPVMYTFDEF [COL10A1_Y623_G618V_YF],0.591
12,KEEEDYREENN [BMS1_Y651_K652R],0.582
13,PRRRFYVVACD [RNASE3_Y134_G130R],0.614
14,HAVFIYDICHV [TWNK_Y508_V507I_YF],0.54
15,YKPGFYNLKEK [LAMA1_Y490_C485Y],0.352
16,DFKIIYIAPMR [SNRNP200_Y540],0.449

# Tested on: AncSZ
# Test: as above
row,Sequence,phosphorylation enrichment
1,LVGTPYWMAPE [PAK5_Y608],0.91
2,EEGNPSFSSAR [MCCC2_Y520_Y520S_YF],0.682
3,FPRAWYRRSIA [KIAA1109_Y4272],0.693
4,NSNSDYVDILP [SH2D1B_Y127_V130I],1.85
5,PNKAVYTKMMT [G6PD_Y401_E398K],0.65
6,CTNIHYNFMCN [TP53_Y234_T231N_YF],0.8
7,QKINNYLTVPA [SLC9A1_Y683],0.618
8,FGYPGYQSKHY [TIMP3_Y177],0.592
9,AKIDGYITSYR,0.809
10,YRTGHYLCNAC [GATA1_Y223_D218Y],0.477
11,FHRQLYHKCTH [F12_Y58_YF],0.601
12,EQFELYCEMGS [CBL_Y371_YF],1.95
13,RMETAYGPSVT [MXRA5_Y2717_E2716A],0.635
14,AADGRYEVLFL [SEMA3F_Y478],1.07
15,RRFLFYFSFLL [PTEN_Y177_V175L_YF],0.691
16,CNNFICGGCRG [SPINT2_Y163_Y163C],0.963
17,LATINYPFEKG [NDUFS8_Y84_P79L],0.827

row,Sequence,phosphorylation enrichment
1,SHSMRYFDTSV [HLA-C_Y31_A35S],0.581
2,ADKSAYLMGVN [MYH7_Y386_L390V],0.574
3,RTESQYQENRG [LRCH3_Y354_R350T],0.792
4,SRASFYRKGGC [ALK_Y1283_Y1278S_YF],0.702
5,TMEDSYRKQVV [KRAS_Y40_I36M],0.69
6,DAGTDYVGISC [FREM2_Y2061_R2066C],1.31
7,SVVVPYETPEV [TP53_Y220_P222T],1.42
8,QSKGIYYVQLE [MGAT4B_Y262],1.21
9,DYYDLYGGEKL [PTPN11_Y66_F71L],3.2
10,GLIPAYHWVIM [NMNAT1_Y64_R66W],1.49
11,VTPVMYTFDEF [COL10A1_Y623_G618V_YF],1.03
12,KEEEDYREENN [BMS1_Y651_K652R],1.3
13,PRRRFYVVACD [RNASE3_Y134_G130R],0.597
14,HAVFIYDICHV [TWNK_Y508_V507I_YF],1.19
15,YKPGFYNLKEK [LAMA1_Y490_C485Y],0.659
16,DFKIIYIAPMR [SNRNP200_Y540],1.21
